Results reported in FireProtDB (doi:10.1126/science.aai7825).

B1: Probable L,D-transpeptidase YnhG wild type, P76193 (protein)
chain: MKRASLLTLTLIGAFSAIQAAWAVDYPLPPTGSRLVGQNQTYTVQEGDKNLQAIARRFDTAAMLILEANNTIAPVPKPGTTITIPSQLLLPDAPRQGIIVNLAELRLYYYPPGENIVQVYPIGIGLQGLETPVMETRVGQKIPNPTWTPTAGIRQRSLERGIKLPPVVPAGPNNPLGRYALRLAHGNGEYLIHGTSAPDSVGLRVSSGCIRMNAPDIKALFSSVRTGTPVKVINEPVKYSVEPNGMRYVEVHRPLSAEEQQNVQTMPYTLPAGFTQFKDNKAVDQKLVDKALYRRAGYPVSVSSGATPAASNAPSVESAQNGEPEQGNMLRVTQ
B2: FKBP-type peptidyl-prolyl cis-trans isomerase FkpA wild type, P45523 (protein)
chain: MKSLFKVTLLATTMAVALHAPITFAAEAAKPATAADSKAAFKNDDQKSAYALGASLGRYMENSLKEQEKLGIKLDKDQLIAGVQDAFADKSKLSDQEIEQTLQAFEARVKSSAQAKMEKDAADNEAKGKEYREKFAKEKGVKTSSTGLVYQVVEAGKGEAPKDSDTVVVNYKGTLIDGKEFDNSYTRGEPLSFRLDGVIPGWTEGLKNIKKGGKIKLVIPPELAYGKAGVPGIPPNSTLVFDVELLDVKPAPKADAKPEADAKAADSAKK
B3: Glutathione S-transferase YfcF wild type, P77544 (protein)
chain: MSKPAITLWSDAHFFSPYVLSAWVALQEKGLSFHIKTIDLDSGEHLQPTWQGYGQTRRVPLLQIDDFELSESSAIAEYLEDRFAPPTWERIYPLDLENRARARQIQAWLRSDLMPIREERPTDVVFAGAKKAPLTAEGKASAEKLFAMAEHLLVLGQPNLFGEWCIADTDLALMINRLVLHGDEVPERLVDYATFQWQRASVQRFIALSAKQSG
B4: dTDP-glucose 4,6-dehydratase 2 wild type, P27830 (protein)
chain: MRKILITGGAGFIGSALVRYIINETSDAVVVVDKLTYAGNLMSLAPVAQSERFAFEKVDICDRAELARVFTEHQPDCVMHLAAESHVDRSIDGPAAFIETNIVGTYTLLEAARAYWNALTEDKKSAFRFHHISTDEVYGDLHSTDDFFTETTPYAPSSPYSASKASSDHLVRAWLRTYGLPTLITNCSNNYGPYHFPEKLIPLMILNALAGKSLPVYGNGQQIRDWLYVEDHARALYCVATTGKVGETYNIGGHNERKNLDVVETICELLEELAPNKPHGVAHYRDLITFVADRPGHDLRYAIDASKIARELGWLPQETFESGMRKTVQWYLANESWWKQVQDGSYQGERLGLKG
B5: Uncharacterized Nudix hydrolase YfcD wild type, P65556 (protein)
chain: MEQRRLASTEWVDIVNEENEVIAQASREQMRAQCLRHRATYIVVHDGMGKILVQRRTETKDFLPGMLDATAGGVVQADEQLLESARREAEEELGIAGVPFAEHGQFYFEDKNCRVWGALFSCVSHGPFALQEDEVSEVCWLTPEEITARCDEFTPDSLKALALWMKRNAKNEAVETETAE
B6: Nucleoid-associated protein YejK wild type, P33920 (protein)
chain: MSLDINQIALHQLIKRDEQNLELVLRDSLLEPTETVVEMVAELHRVYSAKNKAYGLFSEESELAQTLRLQRQGEEDFLAFSRAATGRLRDELAKYPFADGGFVLFCHYRYLAVEYLLVAVLSNLSSMRVNENLDINPTHYLDINHADIVARIDLTEWETNPESTRYLTFLKGRVGRKVADFFMDFLGASEGLNAKAQNRGLLQAVDDFTAEAQLDKAERQNVRQQVYSYCNEQLQAGEEIELKSLSKELAGVSEVSFTEFAAEKGYELEESFPADRSTLRQLTKFAGSGGGLTINFDAMLLGERIFWDPATDTLTIKGTPPNLRDQLQRRTSGGN
B7: Exodeoxyribonuclease III wild type, P09030 (protein)
chain: MKFVSFNINGLRARPHQLEAIVEKHQPDVIGLQETKVHDDMFPLEEVAKLGYNVFYHGQKGHYGVALLTKETPIAVRRGFPGDDEEAQRRIIMAEIPSLLGNVTVINGYFPQGESRDHPIKFPAKAQFYQNLQNYLETELKRDNPVLIMGDMNISPTDLDIGIGEENRKRWLRTGKCSFLPEEREWMDRLMSWGLVDTFRHANPQTADRFSWFDYRSKGFDDNRGLRIDLLLASQPLAECCVETGIDYEIRSMEKPSDHAPVWATFRR
B8: Probable ketoamine kinase YniA wild type, P77739 (protein)
chain: MWQAISRLLSEQLGEGEIELRNELPGGEVHAAWHLRYAGHDFFVKCDERELLPGFTAEADQLELLSRSKTVTVPKVWAVGADRDYSFLVMDYLPPRPLDAHSAFILGQQIARLHQWSDQPQFGLDFDNALSTTPQPNTWQRRWSTFFAEQRIGWQLELAAEKGIAFGNIDAIVEHIQQRLASHQPQPSLLHGDLWSGNCALGPDGPYIFDPACYWGDRECDLAMLPLHTEQPPQIYDGYQSVSPLPADFLERQPVYQLYTLLNRARLFGGQHLVIAQQSLDRLLAA
B9: Elongation factor P-like protein wild type, P0A6N8 (protein)
chain: MPRANEIKKGMVLNYNGKLLLVKDIDIQSPTARGAATLYKMRFSDVRTGLKVEERFKGDDIVDTVTLTRRYVDFSYVDGNEYVFMDKEDYTPYTFTKDQIEEELLFMPEGGMPDMQVLTWDGQLLALELPQTVDLEIVETAPGIKGASASARNKPATLSTGLVIQVPEYLSPGEKIRIHIEERRYMGRAD
B10: Fructose-1,6-bisphosphatase class 1 wild type, P0A993 (protein)
chain: MKTLGEFIVEKQHEFSHATGELTALLSAIKLGAKIIHRDINKAGLVDILGASGAENVQGEVQQKLDLFANEKLKAALKARDIVAGIASEEEDEIVVFEGCEHAKYVVLMDPLDGSSNIDVNVSVGTIFSIYRRVTPVGTPVTEEDFLQPGNKQVAAGYVVYGSSTMLVYTTGCGVHAFTYDPSLGVFCLCQERMRFPEKGKTYSINEGNYIKFPNGVKKYIKFCQEEDKSTNRPYTSRYIGSLVADFHRNLLKGGIYLYPSTASHPDGKLRLLYECNPMAFLAEQAGGKASDGKERILDIIPETLHQRRSFFVGNDHMVEDVERFIREFPDA
B11: Phospho-2-dehydro-3-deoxyheptonate aldolase, Phe-sensitive wild type, P0AB91 (protein)
chain: MNYQNDDLRIKEIKELLPPVALLEKFPATENAANTVAHARKAIHKILKGNDDRLLVVIGPCSIHDPVAAKEYATRLLALREELKDELEIVMRVYFEKPRTTVGWKGLINDPHMDNSFQINDGLRIARKLLLDINDSGLPAAGEFLDMITPQYLADLMSWGAIGARTTESQVHRELASGLSCPVGFKNGTDGTIKVAIDAINAAGAPHCFLSVTKWGHSAIVNTSGNGDCHIILRGGKEPNYSAKHVAEVKEGLNKAGLPAQVMIDFSHANSSKQFKKQMDVCADVCQQIAGGEKAIIGVMVESHLVEGNQSLESGEPLAYGKSITDACIGWEDTDALLRQLANAVKARRG
B12: 5-amino-6-(5-phospho-D-ribitylamino)uracil phosphatase YbjI wild type, P75809 (protein)
chain: MSIKLIAVDMDGTFLSDQKTYNRERFMAQYQQMKAQGIRFVVASGNQYYQLISFFPEIANEIAFVAENGGWVVSEGKDVFNGELSKDAFATVVEHLLTRPEVEIIACGKNSAYTLKKYDDAMKTVAEMYYHRLEYVDNFDNLEDIFFKFGLNLSDELIPQVQKALHEAIGDIMVSVHTGNGSIDLIIPGVHKANGLRQLQKLWGIDDSEVVVFGDGGNDIEMLRQAGFSFAMENAGSAVVAAAKYRAGSNNREGVLDVIDKVLKHEAPFDQ
B13: Outer membrane porin C wild type, P06996 (protein)
chain: MKVKVLSLLVPALLVAGAANAAEVYNKDGNKLDLYGKVDGLHYFSDNKDVDGDQTYMRLGFKGETQVTDQLTGYGQWEYQIQGNSAENENNSWTRVAFAGLKFQDVGSFDYGRNYGVVYDVTSWTDVLPEFGGDTYGSDNFMQQRGNGFATYRNTDFFGLVDGLNFAVQYQGKNGNPSGEGFTSGVTNNGRDALRQNGDGVGGSITYDYEGFGIGGAISSSKRTDAQNTAAYIGNGDRAETYTGGLKYDANNIYLAAQYTQTYNATRVGSLGWANKAQNFEAVAQYQFDFGLRPSLAYLQSKGKNLGRGYDDEDILKYVDVGATYYFNKNMSTYVDYKINLLDDNQFTRDAGINTDNIVALGLVYQF
B14: Selenide, water dikinase wild type, P16456 (protein)
chain: MSENSIRLTQYSHGAGCGCKISPKVLETILHSEQAKFVDPNLLVGNETRDDAAVYDLGNGTSVISTTDFFMPIVDNPFDFGRIAATNAISDIFAMGGKPIMAIAILGWPINKLSPEIAREVTEGGRYACRQAGIALAGGHSIDAPEPIFGLAVTGIVPTERVKKNSTAQAGCKLFLTKPLGIGVLTTAEKKSLLKPEHQGLATEVMCRMNIAGASFANIEGVKAMTDVTGFGLLGHLSEMCQGAGVQARVDYEAIPKLPGVEEYIKLGAVPGGTERNFASYGHLMGEMPREVRDLLCDPQTSGGLLLAVMPEAENEVKATAAEFGIELTAIGELVPARGGRAMVEIR
B15: Imidazole glycerol phosphate synthase subunit HisH wild type, P60595 (protein)
chain: MNVVILDTGCANLNSVKSAIARHGYEPKVSRDPDVVLLADKLFLPGVGTAQAAMDQVRERELFDLIKACTQPVLGICLGMQLLGRRSEESNGVDLLGIIDEDVPKMTDFGLPLPHMGWNRVYPQAGNRLFQGIEDGAYFYFVHSYAMPVNPWTIAQCNYGEPFTAAVQKDNFYGVQFHPERSGAAGAKLLKNFLEM
B16: Ribosome-binding ATPase YchF wild type, P0ABU2 (protein)
chain: MGFKCGIVGLPNVGKSTLFNALTKAGIEAANFPFCTIEPNTGVVPMPDPRLDQLAEIVKPQRTLPTTMEFVDIAGLVKGASKGEGLGNQFLTNIRETEAIGHVVRCFENDNIIHVSGKVNPADDIEVINTELALADLDTCERAIHRVQKKAKGGDKDAKAELAVLEKCLPQLENAGMLRALDLSAEEKAAIRYLSFLTLKPTMYIANVNEDGFENNPYLDQVREIAAKEGSVVVPVCAAVEADIAELDDEERDEFMQELGLEEPGLNRVIRAGYKLLNLQTYFTAGVKEVRAWTIPVGATAPQAAGKIHTDFEKGFIRAQTISFEDFITYKGEQGAKEAGKMRAEGKDYIVKDGDVMNFLFNV

settings: Escherichia coli (strain K12); pH 7.5; Thermal; Intensity; HEPES 20mM; transition: 2; whole UniProt chain shown

Q: With B1 as the protein, how does the Tm read?
A: 44.1 °C

Q: Which Tm does the source give for B2 here?
A: 41.8 °C

Q: With B3 as the protein, how does the Tm read?
A: 41.6 °C

Q: With B4 as the protein, how does the Tm read?
A: 42.3 °C

Q: Which Tm does the source give for B5 here?
A: 42.1 °C

Q: With B6 as the protein, how does the Tm read?
A: 42.6 °C

Q: For B7, which Tm is on record?
A: 42.6 °C

Q: Which Tm does the source give for B8 here?
A: 40.4 °C

Q: With B9 as the protein, how does the Tm read?
A: 43.5 °C

Q: With B10 as the protein, how does the Tm read?
A: 42.4 °C

Q: For B11, which Tm is on record?
A: 41.7 °C

Q: For B12, which Tm is on record?
A: 41.2 °C

Q: With B13 as the protein, how does the Tm read?
A: 43.5 °C

Q: For B14, which Tm is on record?
A: 41.7 °C

Q: With B15 as the protein, how does the Tm read?
A: 42.4 °C

Q: For B16, which Tm is on record?
A: 41.3 °C
